Measurements taken from patent US11499162B2, “Plants having increased tolerance to herbicides” (BASF SE, priority 2016, dated 2022).

B1: L92AY93L: mutated TriA variant of SEQ ID NO: 2 (protein)
chain: MQTLSIQHGTLVTMDQYRRVLGDSWVHVQDGRIVALGVHAESVPPPADRVIDARGKVVLPGFINAHTHVNQILLRGGPSHGRQLYDWLFNVALPGQKAMRPEDVAVAVRLYCAEAVRSGITTINDNADSAIYPGNIEAAMAVYGEVGVRVVYARMFFDRMDGRIQGYVDALKARSPQVELCSIMEETAVAKDRITALSDQYHGTAGGRISVWPAPAITPAVTVEGMRWAQAFARDRAVMWTLHMAESDHDERLHWMSPAEYMECYGLLDERLQVAHCVYFDRKDVRLLHRHNVKVASQVVSNAYLGSGVAPVPEMVERGMAVGIGTDDGNCNDSVNMIGDMKFMAHIHRAVHRDADVLTPEKILEMATIDGARSLGMDHEIGSIETGKRADLILLDLRHPQTTPHHHLAATIVFQAYGNEVDTVLIDGNVVMENRRLSFLPPERELAFLEEAQSRATAILQRANMVANPAWRSL
modifications: Pseudomonas
B2: Y93F: mutated TriA variant of SEQ ID NO: 2 (protein)
chain: MQTLSIQHGTLVTMDQYRRVLGDSWVHVQDGRIVALGVHAESVPPPADRVIDARGKVVLPGFINAHTHVNQILLRGGPSHGRQLYDWLFNVLFPGQKAMRPEDVAVAVRLYCAEAVRSGITTINDNADSAIYPGNIEAAMAVYGEVGVRVVYARMFFDRMDGRIQGYVDALKARSPQVELCSIMEETAVAKDRITALSDQYHGTAGGRISVWPAPAITPAVTVEGMRWAQAFARDRAVMWTLHMAESDHDERLHWMSPAEYMECYGLLDERLQVAHCVYFDRKDVRLLHRHNVKVASQVVSNAYLGSGVAPVPEMVERGMAVGIGTDDGNCNDSVNMIGDMKFMAHIHRAVHRDADVLTPEKILEMATIDGARSLGMDHEIGSIETGKRADLILLDLRHPQTTPHHHLAATIVFQAYGNEVDTVLIDGNVVMENRRLSFLPPERELAFLEEAQSRATAILQRANMVANPAWRSL
modifications: Pseudomonas
B3: M160G: mutated TriA variant of SEQ ID NO: 2 (protein)
chain: MQTLSIQHGTLVTMDQYRRVLGDSWVHVQDGRIVALGVHAESVPPPADRVIDARGKVVLPGFINAHTHVNQILLRGGPSHGRQLYDWLFNVLYPGQKAMRPEDVAVAVRLYCAEAVRSGITTINDNADSAIYPGNIEAAMAVYGEVGVRVVYARMFFDRGDGRIQGYVDALKARSPQVELCSIMEETAVAKDRITALSDQYHGTAGGRISVWPAPAITPAVTVEGMRWAQAFARDRAVMWTLHMAESDHDERLHWMSPAEYMECYGLLDERLQVAHCVYFDRKDVRLLHRHNVKVASQVVSNAYLGSGVAPVPEMVERGMAVGIGTDDGNCNDSVNMIGDMKFMAHIHRAVHRDADVLTPEKILEMATIDGARSLGMDHEIGSIETGKRADLILLDLRHPQTTPHHHLAATIVFQAYGNEVDTVLIDGNVVMENRRLSFLPPERELAFLEEAQSRATAILQRANMVANPAWRSL
modifications: Pseudomonas
B4: L92AY93F: mutated TriA variant of SEQ ID NO: 2 (protein)
chain: MQTLSIQHGTLVTMDQYRRVLGDSWVHVQDGRIVALGVHAESVPPPADRVIDARGKVVLPGFINAHTHVNQILLRGGPSHGRQLYDWLFNVAFPGQKAMRPEDVAVAVRLYCAEAVRSGITTINDNADSAIYPGNIEAAMAVYGEVGVRVVYARMFFDRMDGRIQGYVDALKARSPQVELCSIMEETAVAKDRITALSDQYHGTAGGRISVWPAPAITPAVTVEGMRWAQAFARDRAVMWTLHMAESDHDERLHWMSPAEYMECYGLLDERLQVAHCVYFDRKDVRLLHRHNVKVASQVVSNAYLGSGVAPVPEMVERGMAVGIGTDDGNCNDSVNMIGDMKFMAHIHRAVHRDADVLTPEKILEMATIDGARSLGMDHEIGSIETGKRADLILLDLRHPQTTPHHHLAATIVFQAYGNEVDTVLIDGNVVMENRRLSFLPPERELAFLEEAQSRATAILQRANMVANPAWRSL
modifications: Pseudomonas
B5: Y93V: mutated TriA variant of SEQ ID NO: 2 (protein)
chain: MQTLSIQHGTLVTMDQYRRVLGDSWVHVQDGRIVALGVHAESVPPPADRVIDARGKVVLPGFINAHTHVNQILLRGGPSHGRQLYDWLFNVLVPGQKAMRPEDVAVAVRLYCAEAVRSGITTINDNADSAIYPGNIEAAMAVYGEVGVRVVYARMFFDRMDGRIQGYVDALKARSPQVELCSIMEETAVAKDRITALSDQYHGTAGGRISVWPAPAITPAVTVEGMRWAQAFARDRAVMWTLHMAESDHDERLHWMSPAEYMECYGLLDERLQVAHCVYFDRKDVRLLHRHNVKVASQVVSNAYLGSGVAPVPEMVERGMAVGIGTDDGNCNDSVNMIGDMKFMAHIHRAVHRDADVLTPEKILEMATIDGARSLGMDHEIGSIETGKRADLILLDLRHPQTTPHHHLAATIVFQAYGNEVDTVLIDGNVVMENRRLSFLPPERELAFLEEAQSRATAILQRANMVANPAWRSL
modifications: Pseudomonas
B6: Y93A: mutated TriA variant of SEQ ID NO: 2 (protein)
chain: MQTLSIQHGTLVTMDQYRRVLGDSWVHVQDGRIVALGVHAESVPPPADRVIDARGKVVLPGFINAHTHVNQILLRGGPSHGRQLYDWLFNVLAPGQKAMRPEDVAVAVRLYCAEAVRSGITTINDNADSAIYPGNIEAAMAVYGEVGVRVVYARMFFDRMDGRIQGYVDALKARSPQVELCSIMEETAVAKDRITALSDQYHGTAGGRISVWPAPAITPAVTVEGMRWAQAFARDRAVMWTLHMAESDHDERLHWMSPAEYMECYGLLDERLQVAHCVYFDRKDVRLLHRHNVKVASQVVSNAYLGSGVAPVPEMVERGMAVGIGTDDGNCNDSVNMIGDMKFMAHIHRAVHRDADVLTPEKILEMATIDGARSLGMDHEIGSIETGKRADLILLDLRHPQTTPHHHLAATIVFQAYGNEVDTVLIDGNVVMENRRLSFLPPERELAFLEEAQSRATAILQRANMVANPAWRSL
modifications: Pseudomonas
B7: Y93L: mutated TriA variant of SEQ ID NO: 2 (protein)
chain: MQTLSIQHGTLVTMDQYRRVLGDSWVHVQDGRIVALGVHAESVPPPADRVIDARGKVVLPGFINAHTHVNQILLRGGPSHGRQLYDWLFNVLLPGQKAMRPEDVAVAVRLYCAEAVRSGITTINDNADSAIYPGNIEAAMAVYGEVGVRVVYARMFFDRMDGRIQGYVDALKARSPQVELCSIMEETAVAKDRITALSDQYHGTAGGRISVWPAPAITPAVTVEGMRWAQAFARDRAVMWTLHMAESDHDERLHWMSPAEYMECYGLLDERLQVAHCVYFDRKDVRLLHRHNVKVASQVVSNAYLGSGVAPVPEMVERGMAVGIGTDDGNCNDSVNMIGDMKFMAHIHRAVHRDADVLTPEKILEMATIDGARSLGMDHEIGSIETGKRADLILLDLRHPQTTPHHHLAATIVFQAYGNEVDTVLIDGNVVMENRRLSFLPPERELAFLEEAQSRATAILQRANMVANPAWRSL
modifications: Pseudomonas
B8: D250S: mutated TriA variant of SEQ ID NO: 2 (protein)
chain: MQTLSIQHGTLVTMDQYRRVLGDSWVHVQDGRIVALGVHAESVPPPADRVIDARGKVVLPGFINAHTHVNQILLRGGPSHGRQLYDWLFNVLYPGQKAMRPEDVAVAVRLYCAEAVRSGITTINDNADSAIYPGNIEAAMAVYGEVGVRVVYARMFFDRMDGRIQGYVDALKARSPQVELCSIMEETAVAKDRITALSDQYHGTAGGRISVWPAPAITPAVTVEGMRWAQAFARDRAVMWTLHMAESDHSERLHWMSPAEYMECYGLLDERLQVAHCVYFDRKDVRLLHRHNVKVASQVVSNAYLGSGVAPVPEMVERGMAVGIGTDDGNCNDSVNMIGDMKFMAHIHRAVHRDADVLTPEKILEMATIDGARSLGMDHEIGSIETGKRADLILLDLRHPQTTPHHHLAATIVFQAYGNEVDTVLIDGNVVMENRRLSFLPPERELAFLEEAQSRATAILQRANMVANPAWRSL
modifications: Pseudomonas
B9: F89A: mutated TriA variant of SEQ ID NO: 2 (protein)
chain: MQTLSIQHGTLVTMDQYRRVLGDSWVHVQDGRIVALGVHAESVPPPADRVIDARGKVVLPGFINAHTHVNQILLRGGPSHGRQLYDWLANVLYPGQKAMRPEDVAVAVRLYCAEAVRSGITTINDNADSAIYPGNIEAAMAVYGEVGVRVVYARMFFDRMDGRIQGYVDALKARSPQVELCSIMEETAVAKDRITALSDQYHGTAGGRISVWPAPAITPAVTVEGMRWAQAFARDRAVMWTLHMAESDHDERLHWMSPAEYMECYGLLDERLQVAHCVYFDRKDVRLLHRHNVKVASQVVSNAYLGSGVAPVPEMVERGMAVGIGTDDGNCNDSVNMIGDMKFMAHIHRAVHRDADVLTPEKILEMATIDGARSLGMDHEIGSIETGKRADLILLDLRHPQTTPHHHLAATIVFQAYGNEVDTVLIDGNVVMENRRLSFLPPERELAFLEEAQSRATAILQRANMVANPAWRSL
modifications: Pseudomonas
B10: N70VQ71V: mutated TriA variant of SEQ ID NO: 2 (protein)
chain: MQTLSIQHGTLVTMDQYRRVLGDSWVHVQDGRIVALGVHAESVPPPADRVIDARGKVVLPGFINAHTHVVVILLRGGPSHGRQLYDWLFNVLYPGQKAMRPEDVAVAVRLYCAEAVRSGITTINDNADSAIYPGNIEAAMAVYGEVGVRVVYARMFFDRMDGRIQGYVDALKARSPQVELCSIMEETAVAKDRITALSDQYHGTAGGRISVWPAPAITPAVTVEGMRWAQAFARDRAVMWTLHMAESDHDERLHWMSPAEYMECYGLLDERLQVAHCVYFDRKDVRLLHRHNVKVASQVVSNAYLGSGVAPVPEMVERGMAVGIGTDDGNCNDSVNMIGDMKFMAHIHRAVHRDADVLTPEKILEMATIDGARSLGMDHEIGSIETGKRADLILLDLRHPQTTPHHHLAATIVFQAYGNEVDTVLIDGNVVMENRRLSFLPPERELAFLEEAQSRATAILQRANMVANPAWRSL
modifications: Pseudomonas

Assay type: biochemical
Conditions: pH 7.2
How it was run: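 E. coli resting cells expressing His-tagged TriA incubated with azines, melamine or atrazine. Enzyme in 25 mM sodium phosphate pH 7.2 at 30 °C, substrate 1–10 nM. Loss of parent and formation of OH-metabolite followed by UPLC-HR-MS; % degradation relative to empty-vector cells.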

Going from B1 to B2, the “Degradation in % of 6-cyclopentyl-N4-(2,3,4,5,6-pentafluorophenyl)-1,3,5-triazine-2,4-diamine” value falls from 99% to 33%.

Going from B3 to B4, the “Degradation in % of 6-cyclopentyl-N4-(2,3,4,5,6-pentafluorophenyl)-1,3,5-triazine-2,4-diamine” value rises from 29% to 100%.

Compared with B5, B6 is lower in “Degradation in % of 6-cyclopentyl-N4-(2,3,4,5,6-pentafluorophenyl)-1,3,5-triazine-2,4-diamine” value: 98% for the first, 66% for the second.

Compared with B7, B8 is lower in “Degradation in % of 6-cyclopentyl-N4-(2,3,4,5,6-pentafluorophenyl)-1,3,5-triazine-2,4-diamine” value: 82% for the first, 16% for the second.

Compared with B9, B10 is lower in “Degradation in % of 6-cyclopentyl-N4-(2,3,4,5,6-pentafluorophenyl)-1,3,5-triazine-2,4-diamine” value: 26% for the first, 0% for the second.

First: B1
Second: B2
The “Degradation in % of Melamine” value of the first is higher: 100% for the first, 98% for the second.

B3 and B4 are the same in “Degradation in % of Melamine” value: 100% for the first, 100% for the second.

B5 and B6 are the same in “Degradation in % of Melamine” value: 100% for the first, 100% for the second.

First: B7
Second: B8
The “Degradation in % of Melamine” value of the first is higher: 100% for the first, 0% for the second.

Going from B9 to B10, the “Degradation in % of Melamine” value falls from 100% to 0%.
